Test system: Arabidopsis
Assay: dgt-28, dgt-32, dgt-33, dgt-3, dgt-7 transformed Arabidopsis (T1, T2, T3) response to postemergence glyphosate, % visual injury
Type: in vivo, Arabidopsis thaliana
Conditions: 14 days after application
Excerpt: Transgenic T1 Arabidopsis plants containing the dgt-28 transgene were sprayed with differing rates of glyphosate. Elevated rates were applied in this study to determine the relative levels of resistance (105, 420, 1,680 or 3,360 g ae/ha). A typical 1× usage rate of glyphosate that will control non-transformed Arabidopsis is 420 g ae/ha. […] The T1 Arabidopsis plants that were used in this study were variable copy number for the dgt-28 transgene. The low copy dgt-28 T1 Arabidopsis plants were self-pollinated and used to produce T2 plants.
Results of Glyphosate Selection of Transformed dgt-28 Arabidopsis Plants. The Arabidopsis T1 transformants were first selected from the background of untransformed seed using a glufosinate selection scheme. Three flats or 30,000 seed were analyzed for each T1 construct. The T1 plants selected above were molecularly characterized and representative plants with variable copy number were subsequently transplanted to individual pots and sprayed with various rates of commercial glyphosate as previously described. The response of these plants is presented in terms of % visual injury 2 weeks after treatment (WAT). […] An arithmetic mean and standard deviation is presented for each construct used for Arabidopsis transformation. The range in individual response is also indicated in the last column for each rate and transformation. Wild-type, non-transformed Arabidopsis (c.v. Columbia) served as a glyphosate sensitive control.
T2Arabidopsis Data. The second generation plants (T2) of selected T1 Arabidopsis events which contained low copy numbers of the dgt-28 transgene were further characterized for glyphosate tolerance. Glyphosate was applied as described previously. The response of the plants is presented in terms of % visual injury 2 weeks after treatment (WAT). […] An arithmetic mean and standard deviation are presented for each construct used for Arabidopsis transformation. The range in individual response is also indicated in the last column for each rate and transformation. Wild-type, non-transformed Arabidopsis (cv. Columbia) served as a glyphosate sensitive control. In the T2 generation hemizygous and homozygous plants were available for testing for each event and therefore were included for each rate of glyphosate tested. Hemizygous plants contain two different alleles at a locus as compared to homozygous plants which contain the same two alleles at a locus. Variability of response to glyphosate is expected in the T2 generation as a result of the difference in gene dosage for hemizygous as compared to homozygous plants. The variability in response to glyphosate is reflected in the standard deviation and range of response.
T3 Arabidopsis Data. The third generation plants (T3) of selected T2 Arabidopsis events which contained low copy numbers of the dgt-28 transgene were further characterized for glyphosate tolerance. […] Glyphosate was applied as described previously. The response of the plants is presented in terms of % visual injury 2 weeks after treatment (WAT). […] An arithmetic mean and standard deviation are presented for each construct used for Arabidopsis transformation. The range in individual response is also indicated in the last column for each rate and transformation. Wild-type, non-transformed Arabidopsis (cv. Columbia) served as a glyphosate-sensitive control.

[1] = Table 8, T1 Arabidopsis, 105 g ae/ha glyphosate
[2] = Table 8, T1 Arabidopsis, 420 g ae/ha glyphosate
[3] = Table 8, T1 Arabidopsis, 1680 g ae/ha glyphosate
[4] = Table 8, T1 Arabidopsis, 3360 g ae/ha glyphosate
[5] = Table 10, T1 Arabidopsis, 1,680 g ae/ha glyphosate

B1: pDAB107527: TraP4 v2 - dgt-28 v5: binary construct TraP4 v2:dgt-28 v5 (SEQ ID NO:32) (nucleic acid)
DNA: ATGCTTGCTAGACAAGGTGGAAGTCTGAGAGCTTCTCAATGCAACGCTGGACTTGCTAGAAGAGTTGAAGTTGGTGCTCTTGTTGTTCCTAGACCTATCTCTGTTAACGACGTTGTTCCTCACGTTTACTCTGCTCCACTTTCTGTTGCTAGAAGGTCTTGCTCTAAGTCCTCCATTAGGTCCACTAGAAGGCTTCAAACTACTGTGTGCTCTGCTGCAAGAGGGATGCCAGCCTTGTCTTTACCTGGATCAAAGAGTATCACAGCTAGGGCACTCTTTCTTGCTGCTGCTGCTGATGGGGTTACTACTTTGGTGAGGCCATTGAGAAGTGACGACACAGAAGGATTCGCTGAGGGGTTAGTTCGTTTAGGCTATCGTGTAGGGAGGACACCCGATACTTGGCAAGTCGATGGCAGACCACAAGGACCAGCAGTGGCTGAGGCTGACGTCTACTGTAGAGACGGAGCAACCACCGCTAGATTCTTGCCAACCTTAGCAGCTGCTGGTCACGGAACATACAGATTTGATGCTTCACCACAGATGAGGAGACGTCCTCTTTTGCCCTTAAGCAGAGCCTTGAGGGATTTGGGTGTCGATCTTAGACACGAAGAAGCTGAAGGTCATCACCCTCTGACTGTCCGTGCTGCTGGGGTTGAAGGAGGAGAGGTTACTTTGGATGCTGGTCAGTCAAGTCAGTATCTCACTGCCTTGTTGCTCCTTGGTCCCCTTACAAGACAAGGACTGAGGATAAGGGTTACTGATTTGGTGTCAGCACCATACGTGGAGATTACGCTTGCAATGATGAGGGCTTTCGGAGTTGAAGTGGCAAGGGAGGGAGATGTGTTCGTTGTTCCACCTGGTGGATATCGTGCAACTACGTATGCTATAGAACCCGACGCAAGTACTGCTTCTTACTTCTTCGCAGCTGCTGCTTTGACTCCTGGAGCTGAAGTGACTGTACCTGGGTTAGGCACGGGAGCACTTCAAGGAGATTTGGGATTTGTAGATGTCTTAAGGAGAATGGGAGCCGAGGTGTCCGTAGGAGCTGATGCAACCACTGTTAGAGGAACTGGTGAATTGCGTGGCCTTACAGCCAACATGAGAGACATAAGTGATACGATGCCGACCCTCGCTGCAATAGCACCCTTTGCTAGTGCTCCAGTTAGAATCGAGGATGTTGCCAACACTCGTGTCAAAGAATGTGACAGACTTGAGGCTTGTGCAGAGAACCTTAGGAGGTTGGGAGTAAGGGTTGCAACGGGTCCGGACTGGATTGAGATACACCCTGGTCCAGCTACTGGTGCTCAAGTCACAAGCTATGGTGATCACAGAATTGTGATGTCATTTGCAGTGACTGGACTTCGTGTGCCTGGGATCAGCTTCGACGACCCTGGCTGTGTTCGTAAGACTTTTCCTGGGTTTCACGAGGCTTTCGCAGAATTGAGGCGTGGCATTGGGAGCTGA
modifications: In-frame fusion of dgt-28 v5 and TraP4 v2
% Injury Ave [1]: 3.8%
% Injury Range (%) [1]: 0-15%
No. plants with 20-40% injury [1]: 0
No. plants with <20% injury [1]: 4
No. plants with >40% injury [1]: 0
% Injury Ave [2]: 28.8%
% Injury Range (%) [2]: 0-65%
No. plants with 20-40% injury [2]: 1
No. plants with <20% injury [2]: 2
No. plants with >40% injury [2]: 1
% Injury Ave [3]: 55.0%
% Injury Range (%) [3]: 35-85%
No. plants with 20-40% injury [3]: 2
No. plants with <20% injury [3]: 0
No. plants with >40% injury [3]: 2
% Injury Ave [4]: 43.8%
% Injury Range (%) [4]: 30-70%
No. plants with 20-40% injury [4]: 2
No. plants with <20% injury [4]: 0
No. plants with >40% injury [4]: 2
% Injury Ave [5]: 55.0%
% Injury Range (%) [5]: 35-85%
No. plants with 20-40% injury [5]: 2
No. plants with <20% injury [5]: 0
No. plants with >40% injury [5]: 2
